One assay concerns βL crystallin. The experiment in a line: Chaperone assay, thermal aggregation of βL crystallin. The format is biochemical. Conditions: light scattering at λ=340 nm; 1:10 target protein:peptide; comparison among five peptides. Here is the method: Chaperone Assays. Chaperone assays of the five peptides were performed using previously established methods with minor modifications. Muchowski et al., J Mol Biol 289: 397-411, 1999. A 1:1 monomeric molar ratio of chaperone: target protein was determined to be the optimum ratio and all subsequent chaperone assays of the β3 mutants were performed in triplicate and at a 1:1 monomeric molar ratio of chaperone: target protein in a 96-well ELISA micro-titer plate. […] of the chaperone and βL crystallin were mixed in a total volume of 200 μL buffer (5 mM PBS, pH 7.0). Light scattering at λ=340 nm was measured using a Multiskan MCC/340 plate reader before heating (time=0). After the first reading, the plate was heated at 50° C. and readings were taken at fifteen minute intervals for one hour.
The ability of the peptides to suppress the thermal aggregation of βL crystallin was measured spectrophotometrically as light scattering at λ=340 nm from solutions containing 1:10 monomeric molar ratio of target protein: peptide.

Another assay has as its target beta amyloid (Homo sapiens, UniProt P05067). Put plainly: αB crystallin protein pin array screened for binding to beta amyloid. The note with it: immobilized 8-mer peptide; absorption at 450 nm; assayed 2-5 times. The text has this:
αB Crystallin peptides that bind the target protein beta-amyloid were identified by screening an αB crystallin protein pin array, which provides a systematic method for evaluating interactions between peptides corresponding to residues 1-175 of human αB crystallin and selected target proteins in a parallel and simultaneous manner.
Peptides were synthesized on derivatized polyethylene pins arranged in a microtiter plate format. Each peptide was 8 amino acids in length and consecutive peptides were offset by 2 amino acids. All peptides were covalently bonded to the surface plastic pins. The first immobilized peptide was 1MDIAIHHP8 and the last peptide was 168PAVTAAPK175 for the human αB crystallin.
After synthesis, the pins were pre-coated at room temperature with 2% Bovine Serum Albumin (BSA), 0.1% Tween-20 and 0.1% Sodium azide in 10 mM phosphate buffered saline pH 7.2 (PBS) for 1 hr, and washed three times for 10 mins each with 10 mM PBS. To screen for binding to the peptides, fixed concentrations of the target protein beta amyloid was dissolved in 10 mM PBS, containing 0.05% Tween-20, added to each well and incubated for 1 hr at room temperature. The pin array was washed three times for 10 mins each with 10 mM PBS, containing 0.05% Tween-20. Monoclonal or polyclonal primary antibodies for the target protein beta amyloid was diluted into PBS buffer, added to each well and incubated for 1 hr at room temperature. Subsequently, the pin array was washed three times for 10 mins each with 10 mM PBS containing 0.05% Tween-20. Anti-rabbit horse-radish peroxidase conjugate secondary antibodies was diluted into PBS buffer, added to each well and incubated for 1 hr at room temperature. The pin array was washed three times for 10 mins each with 10 mM PBS containing 0.05% Tween-20. A chromogenic substrate of horse-radish peroxidase 3,3′,5,5′-Tetramethylbenzidine (TMB) (Pharmingen, San Diego, Calif.) which is colorless was added, and the reaction was carried out for 45 min.
The reaction was stopped by adding 6N sulfuric acid, which changes the color from blue to yellow. The absorption at 450 nm was measured by an ELISA reader (BioTek, Winooski, Vt.).
The pin array was regenerated by sonication in a water bath (VWR Aquasonic, West Chester, Pa.) with 100 mM PBS, containing 1% Sodium dodecyl sulfate (SDS) and 0.1% 2-Mercaptoethanol @ 60° C. for 10 mins. Next, the pin array was rinsed three times in deionized water, preheated to 60° C. for 30 secs each time, and shaken in water preheated at 60° C. for 30 min. The pin array was then washed with methanol at 60° C. for 15 secs and air-dried and stored @−20° C. for future use. Each target protein was assayed 2-5 times against the human αB crystallin protein pin array peptides to verify the reproducibility of the results. Peptides numbered 5, 7, 8, 9, 13, 19, 22, 23, 24, 27, 35, 38, 45, 51, 52, 56, 57, 61, 66, 71, 72, and 79 in Table 2 reproducibly tested positive in the protein pin assay.

The next assay relates to bovine βH crystallin. The experiment in a line: Protein pin array interaction with βH crystallin. The class given is binding. The note with it: unheated βH crystallin; similar maxima with βH crystallin pre-heated at 45° C. for fifteen minutes. The text has this: (§1) Synthesis of Pins, binding and detection of peptides binding to ligand proteins. The αB crystallin protein pin array was used to measure the interaction between peptides and chaperone target proteins including bovine βH crystallin, human γD crystallin, equine alcohol dehydrogenase (ADH) and porcine citrate synthase (CS) as described (FIG. 12). Ghosh and Clark, Protein Sci 14: 684-95, 2005.
(§2) Refer to the methods section for detailed protocols. The absorbance corresponding to the blue coloration in each well was measured at λ=450 nm and plotted against the amino acid sequence of the corresponding peptide in that well (FIGS. 13 and 14). Wells containing peptides that have strong interactions with target proteins are dark blue and wells containing peptides that have weak or no interaction with target proteins are light blue or clear.
(§3) The purity of the target proteins used in the pin array assays, bovine βH crystallin, human γD crystallin, equine alcohol dehydrogenase (ADH) and porcine citrate synthase (CS) were determined to be >90% by SDS-PAGE. In addition, primary antibodies for each target protein were specific to that target protein and consequently contaminating proteins that may bind to the peptides will not be detected. Eighty-four sequential and overlapping peptide fragments corresponding to residues 1-175 of human αB crystallin were synthesized employing a simultaneous peptide synthesis strategy developed by Geysen, called Multipin Peptide Synthesis (Mimotopes, San Diego, Calif.). Geysen, Southeast Asian J Trop Med Public Health 21: 523-33, 1990; Chin et al., J Org Chem 62: 538-539, 1997. Peptides were immobilized on derivatized polyethylene pins arranged in a microtiter ELISA plate format. Each peptide was eight amino acids in length and consecutive peptides were offset by two amino acids. All peptides were bound covalently to the surface of the plastic pins. The first peptide was […] for human αB crystallin.
(§4) Ghosh and Clark, Protein Sci 14: 684-95, 2005. […] The intensity of the blue color in the wells was measured at 450 nm using an ELISA plate-reader (BioTek, Winooski, Vt.). The intensity of the blue color (plotted on the X-axis) was a measure of the interaction between αB crystallin peptides (plotted on the Y-axis) and target proteins. To measure the effect of temperature on the interactions between interactive peptides and the target proteins, the target proteins were heated in a water-bath at 45° C. for fifteen minutes prior to use. Pin arrays are unable to differentiate between monomers, dimers or oligomers of target proteins that exist in solution. Instead, pin arrays are very sensitive detectors of interactions between individual peptides and the entire population (monomers, dimers or oligomers) of specific target proteins that may exist in solution under specific conditions. Each target protein was assayed two to five times. A single pin array was used for all experiments and no change in interactions was observed after more than thirty repetitions. The last three peptides of the protein pin array, 163REEKPAVT170, 165EKPAVTAA172, 167PAVTAAPK174, correspond to the epitope (163REEKPAVTAAPKK175) recognized by the primary antibody for human αB crystallin. A positive reaction is observed for these three peptides in the absence of human αB crystallin as the ligand due to direct binding of the anti-human αB crystallin antibody to these three peptides. The loss of efficiency for the pin array was measured using this assay. The loss of efficiency for the pin array was determined to be <5% by after more than 30 assays.
(§5) The amino acid sequences of each 8-mer human αB crystallin peptide immobilized sequentially on 84 pins in a 96-well ELISA plate format are listed on the Y-axis. […]

The target in assay [1] is T1, equine alcohol dehydrogenase (ADH) (Equus caballus, UniProt P00327).
T1 construct: purchased
The experiment in a line: Protein pin array interaction with alcohol dehydrogenase. The class given is binding. The note with it: ADH as ligand, unheated and pre-heated.
Excerpt: as §1, §2, §3, §4
(§6) The Y-axis lists the amino acid sequences of the 8-mer peptides that are immobilized sequentially in a 96-well format. […]

Assay [2] deals with T2, porcine citrate synthase (CS) (Sus scrofa, UniProt P00889).
T2 construct: purchased
T2 sequence (P00889 28-464): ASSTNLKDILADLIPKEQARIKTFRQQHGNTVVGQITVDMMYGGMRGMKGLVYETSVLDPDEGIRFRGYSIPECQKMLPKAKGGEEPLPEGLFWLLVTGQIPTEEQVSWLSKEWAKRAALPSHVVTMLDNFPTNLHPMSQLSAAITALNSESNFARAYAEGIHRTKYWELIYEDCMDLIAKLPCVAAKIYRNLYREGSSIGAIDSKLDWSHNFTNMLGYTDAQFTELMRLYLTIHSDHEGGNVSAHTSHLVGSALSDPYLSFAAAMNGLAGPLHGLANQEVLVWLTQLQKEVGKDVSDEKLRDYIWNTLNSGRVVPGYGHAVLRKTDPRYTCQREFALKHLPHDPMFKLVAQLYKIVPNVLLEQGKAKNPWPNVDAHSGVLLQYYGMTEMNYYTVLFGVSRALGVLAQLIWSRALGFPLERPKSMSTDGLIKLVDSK
The experiment in a line: Protein pin array interaction with citrate synthase. The format is binding. The note with it: CS as target protein, unheated and pre-heated.
Excerpt: as §1, §2, §3, §4, §6

The target of assay [3] is T3, γD crystallin (Homo sapiens, UniProt P07320).
T3 sequence (P07320 1-174): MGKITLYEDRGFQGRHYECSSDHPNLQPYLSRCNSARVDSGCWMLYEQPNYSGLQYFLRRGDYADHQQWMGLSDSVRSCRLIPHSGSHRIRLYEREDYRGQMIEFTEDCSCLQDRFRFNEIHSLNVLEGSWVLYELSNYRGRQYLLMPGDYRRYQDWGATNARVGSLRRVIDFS
Put plainly: Protein pin array interaction with γD crystallin. The class given is binding. Also noted: purchased. The note with it: unheated γD crystallin; similar peptide sequences with γD crystallin pre-heated at 45° C. for fifteen minutes.
Excerpt: as §1, §2, §3, §4, §5

The target of assay [4] is T3, γD crystallin. The experiment in a line: γD crystallin ThioflavinT fluorescence (fibrillization of γD crystallin). The format is biochemical. The note with it: ThioflavinT fluorescence after 72 hrs; 1:1 γD crystallin:peptide; comparison among αB crystallin and five peptides. Here is the method: γD crystallin Thioflaviin T fluorescence. γD crystallin fibrils were formed in a similar way to that of γ crystalline. Meehan et al., J Biol Chem 279: 3413-3419, 2004. Peptides were dissolved to […] IN tfe AND DILUTED to 0.91 mM stock solutions in 10% TFE, pH 2.0.
3.5 mg of ThioflavinT was dissolved in 100 μL of 50 mM Glycine pH 8.5. A stock solution of 1 mg/ml (0.22 mM) Aβ was prepared. 20 μl Aβ, 5 μl chaperone, 2 μl ThioflavinT was mixed with 73 μL 10% TFE, pH 2.0. Fluorescence was read using a Beckman Coultier DTX 880 multimode detector. Samples were heated at 50° C. for 72 hours and fluorescence was read again.
The fibrillization of γD crystallin was measured as fluorescence of the fluorescent dye ThioflavinT from solutions containing 1:1 monomeric molar ratio of γD crystallin:peptide. In the absence of fibrils ThioflavinT had little or no fluorescence. The fluorescence of the ThioflavinT bound to γD crystallin fibrils in the absence of any other molecule after 72 hrs was set to 100%. […] Fibril formation=ΔfluorescenceγD crystallin (with chaperone)*100/ΔfluorescenceγD crystallin (without chaperone).

T1 sequence (P00327 whole entry): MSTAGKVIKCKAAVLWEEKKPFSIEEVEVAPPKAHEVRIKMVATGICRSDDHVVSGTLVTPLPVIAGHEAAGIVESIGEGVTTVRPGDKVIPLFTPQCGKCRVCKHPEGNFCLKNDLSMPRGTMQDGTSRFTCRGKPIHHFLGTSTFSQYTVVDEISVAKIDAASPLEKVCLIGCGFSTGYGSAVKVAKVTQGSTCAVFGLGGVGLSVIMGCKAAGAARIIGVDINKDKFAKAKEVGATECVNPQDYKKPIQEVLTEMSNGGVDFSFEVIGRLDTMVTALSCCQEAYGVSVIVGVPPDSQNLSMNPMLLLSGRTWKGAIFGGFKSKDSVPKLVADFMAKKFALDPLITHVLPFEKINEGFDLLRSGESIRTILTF

As for ERTIPITRE, the “effect on the thermal aggregation of βL crystallin (chaperone activity)” value in the assay on βL crystallin is recorded as “slightly lower than the HG peptide”.

On to FSVNLDVK [Peptide 38], for which, in the assay with beta amyloid, the “protein pin assay result with target protein beta amyloid” value (from here on “protein pin assay result”) is recorded as “positive”. Further, the “absorbance at λ=450 nm, interaction with βH crystallin” value (shortened to “absorbance … with βH crystallin”) in the assay with bovine βH crystallin is “Maximum absorbances”. The “absorbance at λ=450 nm, interaction with ADH” value (shortened to “absorbance … with ADH”) in assay [1] is “Maximum absorbances”. Further, the “absorbance at λ=450 nm, interaction with CS” value (“absorbance … with CS” for short) in assay [2] is listed as “absorbance maxima”. The “absorbance at λ=450 nm, interaction with γD crystallin” value (shortened to “absorbance … with γD crystallin”) with γD crystallin [3] is recorded as “maximum absorbances”.

On to LTITSSLS [Peptide 66], for which the “protein pin assay result” value with beta amyloid is “positive”. Besides, the “absorbance … with βH crystallin” value in the assay on bovine βH crystallin is recorded as “Maximum absorbances”. Besides, the “absorbance … with ADH” value in assay [1] is given as “Maximum absorbances”. In addition, the “absorbance … with CS” value in assay [2] is recorded as “absorbance maxima”. In addition, the “absorbance … with γD crystallin” value with γD crystallin [3] was “maximum absorbances”.

On to STSLSPFYLRPPSFLRAP, for which the “effect on the fibrillization of γD crystallin” value with γD crystallin [4] is listed as “strongest effect”. In the assay on βL crystallin, the “effect on the thermal aggregation of βL crystallin (chaperone activity)” value is listed as “weakest effect”.

As to WIRRPFFP [Peptide 5], the “protein pin assay result” value in the assay with beta amyloid is “positive”. Further, the “absorbance … with βH crystallin” value in the assay on bovine βH crystallin was “Maximum absorbances”. The “absorbance … with ADH” value in assay [1] was “Maximum absorbances”. Further, in assay [2], the “absorbance … with CS” value is reported as “absorbance maxima”. In addition, the “absorbance … with γD crystallin” value with γD crystallin [3] is on record as “maximum absorbances”.

For the origin of these results see patent publication US20080227700A1, “Compositions and Methods for Treatment of Protein Misfolding and Protein Aggregation Diseases” (priority 2004, published 2008).
